Source: patent US7173007B1, “Therapy for microbial infections” (The Regents of the University of California, priority 2003, dated 2007)

How the values were obtained:
human liver cathepsin L = target: T1, human liver cathepsin L (Homo sapiens, UniProt P07711); assay: Proteinase activity inhibition assay (hydrolysis of Z-Phe-Arg-AMC); type: biochemical
T1 construct: human liver cathepsin L (Calbiochem, Calif.); purchased Calbiochem; host or cells: human liver
Method: FIG. 2 show the proteinase inhibitory activity of recombinant cathelin-like protein. Hydrolysis of the fluorogenic substrate Z-Phe-Arg-AMC by cathepsin L (protease alone), and in the presence of cathelin-like protein (protease+cathelin). […] Slopes, intercepts, and correlation coefficients were calculated by linear regression. Data were recorded 10 times over 30 min and are representative of two experiments.
Proteinase activity inhibition assay. Proteinase inhibitory activity of recombinant cathelin-like protein was assayed spectrofluorometrically by measuring its inhibitory action against human liver cathepsin L (Calbiochem, Calif.). For the reaction assay, cathepsin L (0.1 mU) in the assay buffer ([…] sodium acetate, 60 mM acetic acid, 8 mM dithiothreitol, and 4 mM EDTA, pH 5.5, supplemented with 0.1% BRIJ 35) was preincubated for 2 min at 30° C. with 10^−6 M cathelin-like protein before adding […] of substrate Z-Phe-Arg-7-amido-4-methylcoumarin (Calbiochem). When hydrolyzed by cathepsin L, this substrate releases highly fluorescent 7-amido-4-methylcoumarin (AMC). AMC intensity was determined using spectrophotometer at 370 nm excitation and an emission wavelength of 460 nm. One unit was defined as the amount of enzyme that will hydrolyze 1.0 mmol of Z-Phe-Arg-AMC per min at 25° C., pH 5.5.
Proteinase inhibitory activity. To evaluate the possible protease inhibitory activity action of cathelin-like protein, the activity of human cathepsin L was measured in the presence or absence of recombinant cathelin-like protein using the fluorescent substrate Z-Phe-Arg-AMC.

E. coli = assay: Colony-forming assay (CFU), liquid phase; type: cell-based; set-up: unit of the concentration uncertain; settings: 10 mM phosphate, 1% TSB
Method: (§1) FIGS. 3A–C show Growth inhibition of MRSA, E. coli, and P. aeruginosa by cathelin-like protein. (a) Inhibition zone ssay on tryptone/agarose plates with MRSA. Clear circles show lack of bacterial growth. Lanes 1, 3, 5, bottom row: cathelin-like protein at […], 16 μM, respectively. Lane 2, top row:[…] of His-tagged cathelin-like protein before cleavage. Lane 4, top: enterokinase enzyme alone. All assays were performed in duplicate and repeated three times. (b), (c) CFU assay: growth inhibition of (b) MRSA and (c) E. coli, cultured in 10 mM phosphate and 1% TSB (pH 7.4) and then supplemented with different concentrations of human cathelin-like protein.
(§2) The colony-forming assay (CFU) was performed. Bacterial cultures (E. coli or MRSA) were collected at the logarithmic phase of growth in TSB, washed twice with phosphate-buffered saline, pH 7.4, and diluted to 104 CFU per ml in 10 mM phosphate buffer, pH 7.4, Na2HPO4/NaH2PO4-1% TSB (g per 1). Forty-five microliters of bacterial suspension were mixed with […] of H2O (control) or with […] of different concentrations of cathelin-like proteins, and the mixture was incubated at 37° C. Every 30 min, a […] aliquot of the reaction mixture was plated directly onto a TSB agar plate and then incubated at 37° C. overnight for enumeration of CFU. Data are reported as growth index=final CFU/CFU in initial inoculum. […]

[1] = test system: Pseudomonas aeruginosa (ATCC 8427); assay: Radial diffusion (inhibition zone) assay; type: cell-based; settings: P. aeruginosa
Method: (§3) Antimicrobial assays. E. coli (ATCC 25922), Pseudomonas aeruginosa (ATCC 8427), Salmonella typhimurium (ATCC 13311), Proteus vulgaris (ATCC 8427), Staphylococcus epidermidis (ATCC 12228), and MRSA (ATCC 33591) isolates were maintained on trypticase soy broth (TSB) agar plates. Individual colonies were selected and cultured overnight in TSB, subcultured once at 1:50 in fresh TSB, and then grown to stationary phase for use in all experiments. The radial diffusion assay was performed in 0.5% agarose and 0.75% tryptone brought to ebullition and cooled to 43° C., and then mixed with […] of bacterial suspension and poured into a 10 cm Petri dish. A series of small wells (diameter, 3 mm) were punched in the plate after the agarose solidified. Two microliters of test samples were applied in each well. Plates were incubated at 37° C. overnight to allow visible growth of bacteria. Antibacterial activity was indicated by the clear zone (no bacterial growth) around the well.
(§4) Antimicrobial activity of recombinant cathelin-like protein. Recombinant cathelicidins were tested for antimicrobial activity using a standard radial diffusion assay. Different concentrations of the cathelin-like protein were loaded into wells on assay plates containing Gram-positive MRSA, S. epidermidis, and strains of the Gram-negative bacterial species E. coli, S. enteritidis, P. vulgaris, and P. aeruginosa. […] Similarly, cathelin-like protein inhibited growth of S. epidermidis ([…]) but not S. enteritidis or P. vulgaris.

E. coli (ATCC 25922) = assay: Radial diffusion (inhibition zone) assay; type: cell-based
Method: as §3, §4

[2] = test system: Staphylococcus epidermidis (ATCC 12228); assay: Radial diffusion (inhibition zone) assay; type: cell-based; settings: S. epidermidis
Method: as §3, §4

S. enteritidis = assay: Radial diffusion (inhibition zone) assay; type: cell-based
Method: as §3, §4

[3] = test system: Proteus vulgaris (ATCC 8427); assay: Radial diffusion (inhibition zone) assay; type: cell-based; settings: P. vulgaris
Method: as §3, §4

MRSA (ATCC 33591) = assay: Radial diffusion (inhibition zone) assay; type: cell-based, Staphylococcus aureus; settings: MRSA
Method: as §1
as §3, with “A series of small wells (diameter, 3 mm) were punched in the plate after the agarose solidified. Two microliters of test samples were applied in each well. Plates were incubated at 37° C. overnight to allow visible growth of bacteria. Antibacterial activity was indicated by the clear zone (no bacterial growth) around the well.” left out

MRSA = assay: Colony-forming assay (CFU), liquid phase; type: cell-based, Staphylococcus aureus; settings: 10 mM phosphate, 1% TSB, pH 7.4
Method: as §1, §2

T1 sequence (P07711 114-288 limits assumed): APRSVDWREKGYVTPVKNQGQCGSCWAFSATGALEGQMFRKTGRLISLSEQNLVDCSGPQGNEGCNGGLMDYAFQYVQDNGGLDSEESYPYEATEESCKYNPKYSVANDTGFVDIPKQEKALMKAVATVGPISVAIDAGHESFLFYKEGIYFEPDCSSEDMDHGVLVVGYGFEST
T1 sequence (P07711 292-333 limits assumed): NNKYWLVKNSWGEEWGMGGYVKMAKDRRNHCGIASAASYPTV

B1: hCAP18/LL-37: recombinant human full-length cathelicidin, residues 31-170 of SEQ ID NO:2, inactive precursor (protein, listed as Homo sapiens)
chain: QVLSYKEAVLRAIDGINQRSSDANLYRLLDLDPRPTMDGDPDTPKPVSFTVKETVCPRTTQQSPEDCDFKKDGLVKRCMGTVTLNQARGSFDISCDKDNKRFALLGDFFRKSKEKIGKEFKRIVQRIKDFLRNLVPRTES
cathepsin L inhibitory activity (human liver cathepsin L; parallel experiments): did not demonstrate inhibitory activity | effect on growth (CFU) (E. coli; 32 (unit uncertain), pH 7.4): did not show any activity | minimal inhibitory activity against growth, concentration [1]: greater than 64 mM | minimal inhibitory activity against growth, concentration (E. coli (ATCC 25922)): greater than 64 mM | minimal inhibitory activity against growth, concentration [2]: greater than 64 mM | minimal inhibitory activity against growth, concentration (S. enteritidis): greater than 64 mM | minimal inhibitory activity against growth, concentration [3]: greater than 64 mM | minimal inhibitory activity against growth, concentration (MRSA (ATCC 33591)): greater than 64 mM | effect on growth (CFU) (MRSA): did not show any activity

B2: cathelin-like protein: recombinant human cathelin-like domain of hCAP18, residues 31-131 of SEQ ID NO:2, expressed in E. coli, His-tag cleaved by enterokinase (protein, listed as Homo sapiens)
chain: QVLSYKEAVLRAIDGINQRSSDANLYRLLDLDPRPTMDGDPDTPKPVSFTVKETVCPRTTQQSPEDCDFKKDGLVKRCMGTVTLNQARGSFDISCDKDNKR
slope of fluorescence generation (linear regression) (human liver cathepsin L; cathepsin L + cathelin-like protein, cathepsin L alone slope 1.31): 0.71 | hydrolytic activity of cathepsin L inhibited by (human liver cathepsin L; protein added at final concentration of 10^-6 M, substrate Z-Phe-Arg-AMC): 46% | effect on growth (CFU) (E. coli; 16 (unit uncertain), pH 7.4, compared to untreated controls): marked growth inhibition | growth inhibition [1]: did not inhibit growth | minimal inhibitory activity against growth, concentration (E. coli (ATCC 25922)): 16 mM | minimal inhibitory activity against growth, concentration [2]: 32 mM | growth inhibition (S. enteritidis): not | growth inhibition [3]: not | minimal inhibitory activity against growth, concentration (MRSA (ATCC 33591)): 32 mM | effect on growth (CFU) (MRSA; concentration not given): decreased MRSA CFU for the first 15 min and then was bacteriostatic
